{
  "source": "the DeepSol protein solubility set",
  "data": [
    {"experiment": "soluble on expression in E. coli; label from the status in PepcDB or PDB records", "values": [
      {"sequence": "MAHHHHHHMRARRSCKFAEYLSTYAILEHIGIHPTTLIEKRDAAVGVGVYVRDACDAGTALLAVPSKRFCTTSVLSRVGLKTSFCSPWRADSEVPSTAFAGPTCDVQGGILSFLTGSTQWPELAWRLALEQHRSVSPLWGWLQSLPSVEELADRRDVAERQCRVHHTMLLPYYLKGRQRIREETVAAYSQLRAQNILPCFDRFAWAVDVVLSRGLLLPTAWPTAGGVFTNSTTDGEHEEEDSDPLPHTSLECGVVPFLDLVNAPDDVGRVVNADIEIATSLETLPKFLTDELAADATARGRGGDDLAEVKRLLETHYYLCLTLRKPLRASEEVILEWQVPVLTTEVLTAAEDAIVSRFLKYMF", "soluble on expression in E. coli": "not soluble"},
      {"sequence": "MSIQQIIEQKIQKEFQPHFLAIENESHLHHSNRGSESHFKCVIVSADFKNIRKVQRHQRIYQLLNEELNHSIHALALHLFTPEEWKAQNETVPHSTKCAGIGRLEHHHHHH", "soluble on expression in E. coli": "soluble"},
      {"sequence": "WSKIEKEQFYIAICAMNKTIAQKLFVLMKKAKKWLLQPDVRELKRFSIIDQKQLIYSYLIYHKINVNGEKIDAILDFIQPSQQKQYRLQNDIFLMVKNQCLALLYK", "soluble on expression in E. coli": "soluble"},
      {"sequence": "MKNREIYAEMRCIPPVVLRADGRNFKNTLSGLGFEKPYDTTFARAMADTAELFIKKSGLSPYFAYTFSDEISFLFTDLPFDGRVEKIDSVVASFLGSALTIKLRLEAPIAFDSRLVALQKEEVSEYFHWRQLEAWRNFVASWGYYSLRNEGMGKDEAGKFLKGKKEWEIHEMLFERGINLAALPAWQRRGIIISKEECEISGFNPVYGKEVKSMRRRITQNWEIPKFKSEEGITFLEKLINRNMAGDPLEHHHHHH", "soluble on expression in E. coli": "not soluble"},
      {"sequence": "MSLIRIDFSQLHQAREDAAAAMPSIAGKKILMGFWHNWPAGAADGYQQGSFANIALEDVPSEYNVVAVAFMKGRGIPTFQPYNLSDAEFRRQVGVLNAQGRAVLISLGGADAHIELHAGQEQALAAEIVRLVETYGFDGLDIDLEQSAIDLADNQRVLPAALKLVREHYAGQGKHFIVSMAPEFPYLHKNGKYVPYLQALEGVYDFIAPQYYNQGGDGLWVQEANGGKGAWIAQNNDAMKEDFLYYLTESLATGSRDFVRIPAQRLAIGLPSNVDAAATGYVIDPAAVSNAFRRLEAAGHAIKGLMTWSVNWDDGLNKRGERYNWEFRKRYASLIHDGEGGDQRPAAPQGLRLLERGETSLVLAWNASSGQRPIDYYSLYRDGAMVGQSAALGSTDSGLTADTRYSYFVTATDTQGNQSLPSEGLEVSTSGGAVDPQFPQWRENQAYRVDDGVTYEGLRYLCLQAHTSNSGWTPPVAFTLWREGGSHHHHHH", "soluble on expression in E. coli": "soluble"},
      {"sequence": "ALTSNASGTFDGYYYELWKDTGNTTMTVYTQGRFSCQWSNINNALFRTGKKYNQNWQSLGTIRITYSATYNPNGNSYLCIYGWSTNPLVEFYIVESWGNWRPPGATSLGQVTIDGGTYDIYRTTRVNQPSIVGTATFDQYWSVRTSKRTSGTVTVTDHFRAWANRGLNLGTIDQITLCVEGYQSSGSANITQNTFSQSS", "soluble on expression in E. coli": "soluble"},
      {"sequence": "FPDILDNRIEKMSSCFKQAAEEYGYKAENFIIYPIKVNQMRPVVEEIISHGKKFNLGLEAGSKPELHAVIAVNTDSDSLIVCNGYKDESYIELALLAQKMGKRIFLVVEKMNELKLIAKMAKQLNVQPNIGIRIKLASSGSGKWEESGGDASKFGLTSSELLEALDFMESKGLKDCLKLIHFHIGSQVTKIRRIKTALREASQFYVQLHSMGFNVEFVDIGGGLGVDYDGTRSSNSEGSVNYSIQEYVNDSISTLVDVSDKNGIPHPNIITESGRALTAH", "soluble on expression in E. coli": "soluble"},
      {"sequence": "MTFHYPNGIPYNHHEAQSPKKQVKKKRPVEFGNRGMDFEEAINQSNQYYLLNKQAVVHKKPTPVQIVKVDYPKRSAAVIKEAYFRQASTTDYNGVYQGRYIDFEAKETKNTTSFPFKNFHQHQIDHMEQCIAQQGICFVLLWFSSLKRCFFFSGENLITHWKNQAVTGKKSMPLALIEKEGIELSFGIAPRIPYLDAVEQYIQTH", "soluble on expression in E. coli": "not soluble"},
      {"sequence": "MSLTQIENSQYRKHKQKQQHLQHSLTGESKTAIVVFSRSGNTATLSEHIAHKTNGHVYEIFAKSYALGIPGWINALKDARSNVAEIVPQHIDLSSYDTVYLGSPIWLYSPAPPFWQFVKDNDLTNKRVILFNSFNSKFEQHFIDEFAALARAKGATSFEHQYVKRGRMGDQLSTDEMLAAFDHLNPNEGHHHHHH", "soluble on expression in E. coli": "soluble"},
      {"sequence": "MTELQHPVLVVDDETDILDLMEMTLMKMGLRVHTASGVAEAKNKLDSQRYSLVLTDMRMPDGSGLEVVQHINSRLLDTPVAVITAFGNADQAQEALRCGAFDPDTMQIQDYLDQIERDIIEQTLKQTEGNRTQAAKRLGISFRSMRYRMERLNIG", "soluble on expression in E. coli": "not soluble"},
      {"sequence": "MDPSVTLWQFLLQLLREQGNGHIISWTSRDGGEFKLVDAEEVARLWGLRKNKTNMNYDKLSRALRYYYDKNIIRKVSGQKFVYKFVSYPEVAGC", "soluble on expression in E. coli": "soluble"},
      {"sequence": "MEREQRHKVIMRTIDRPGITRIDALTELTGVSAVTIHRDLVELEQAGFLARTHGGAKRVPKRGTPQPFAVRQAEDREAKRILAQATAQLIADDEAVIFDNGTTCQAVAQELAGRPITALCLSLHSAVALGSRAGTNVFIPGGPVENDSLALSGPAVITALRDFSADVVILGSCSTSLEHGLATTTYDDAENKRAAIHAATRRILVVSARKLNHVSTFRFADVADLHQLVTTSDAPREILAEIRDLGVQVITVPAPDEQRSLEHHHHHH", "soluble on expression in E. coli": "soluble"},
      {"sequence": "MGSDKIHHHHHHMIIDEISLFILDMDGTLTLEPSSWDYVHRRLGINNHSVTRLYRNRYINYYCFFQSDIKAWLHKYPNLKKEKVVEFLREVPIRHGADELINVLRKNGIRTAVISGGISWLFDIISERSKIDYNFSNEIFTDEYGYIVPEGKVRVIPEEKDLVVRKIQEELGIGKDQTASVGDEMENDRIHRYSKYRFIISKKARDNLIPIPSGDLEDLLRILE", "soluble on expression in E. coli": "not soluble"},
      {"sequence": "MSLCAAHAARPLALVMRLGYETAMSQIESLFVTRLYRARLSEHGPAIDPEEMEASCYSIAEDDEAGQEWCEENGYPGYTSYASLTDLPWRFPIFADLVTSLDAHVAAFAADLEFDLDGRKLVLEDLWINILPQGGMHSSHLHPHSVISGTTYVAMPEGASALKLEDPRSGRMMAAPTRTKTARRELQPFIYMKPDVGDVLLWESWLRHEVPMNMSEEERISVSFNYRWDEGHHHHHH", "soluble on expression in E. coli": "soluble"},
      {"sequence": "MQDADKLPHTKVTLVAPPQVHPHEQATKSGPKVVEFTMTIEEKKMVIDDKGTTLQAMTFNGSMPGPTLVVHEGDYVQLTLVNPATNAMPHNVDFHGATGALGGAKLTNVNPGEQATLRFKADRSGTFVYHCAPEGMVPWHVVSGMSGTLMVLPRDGLKDPQGKPLHYDRAYTIGEFDLYIPKGPDGKYKDYATLAESYGDTVQVMRTLTPSHIVFNGKVGALTGANALTAKVGETVLLIHSQANRDTRPHLIGGHGDWVWETGKFANPPQRDLETWFIRGGSAGAALYTFKQPGVYAYLNHNLIEAFELGAAGHIKVEGKWNDDLMKQIKAPAPIPR", "soluble on expression in E. coli": "soluble"},
      {"sequence": "MGSDKIHHHHHHMQLSHSLRLMGTTIDIQINSKNAQKQIREVIELLELYKNRFSANDFNSELMAINNNAGIKPIQVHPDLFELITIGKEHSLARPSNLNIAIGPLVQTWRIGFSDAKLPSPSEISEAMILSDPTHILLDSNKQSVFLNQIGMKIDLGALAKGYIADKIMTYLKNEMIDSAIINLGGNVLVHGDNPNRSEGYWVIGIQHPKKKRGKNIGTVKIKNQSVVTSGTYERRLIIDDKEYHHIFDRQTGYPIQTEMASISIVSKQSVDCEIWTTRLFGLSIKEALDILNAVSYIEGIIITKDDRIYLSDGLKHHFQLFYH", "soluble on expression in E. coli": "not soluble"},
      {"sequence": "MSLNRPLRIGIVVGELSGDTLGEGFIKAIRARYPDAEFVGIGGPKMNALGCQSLFDMEELAVMGLVEVLGRLPRLLKVKAELVKYFTANPPDVFVGIDAPDFNLRLELSLKQAGIKTVHYVSPSVWAWRQNRIHGIAAATHLVLAFLPFEKAFYDKFNVPCEFIGHTLADSIPLASDKLAARQLLGLDEQRRWLAVLPGSRGSEMKMLAEPFIATCQKLQARYPDLGFVVALVNAKRRAQFEQAWQQVAPELNFVLVDDTARNVITAADAVMLASGTVALECMLLKRPMVVGYRVNAFTAFLAKRLLKTPYVSLPNILAGEELVKELLQDHCTVDNLYHEVSRLLESDNQALMDKFTEMHQWIRKDADQQAAQAVLHLIQKEGHHHHHH", "soluble on expression in E. coli": "not soluble"},
      {"sequence": "AIADTRSLQDFQDLCTFDVFKSFGHYYGYGVDQQALIDQEFKRIKGVTYLDHAGTTLFPESLIKGFHDDIPRNVYGNPHSHNSSSRLTHDTVESVRYKILAHFNTSPEDYSVIFTSGCTAALKLVADTFPWKPMSNKEPGSQFCYLTDNHTSVVGIRGATALQGVGTISVSPREVETRARNKTQTNGEEECSTPHLFCYPAQSNFSGRKYSLSYVKGIQSQQLYPACEHHGQWFVLLDAACFVSCSPLDLSQYPADFVPISFYKMFGFPTGLGALLVRNEAAEVLRKTYFGGGTAAAYLVEENYFIPKPNLASR", "soluble on expression in E. coli": "soluble"},
      {"sequence": "MSLQFVSKARKGLVPQRCHRFQSCAYRSNQWRYRGRCDSIQFAVDKRVFIAGFGLYGSSCGSAEYSAKIEMKRQGVVLGQNLSKYFSDGSSNTFPVWFEYPVQIEPDTFYTASVILDGNELSYFGQEGMTEVQCGKVTVQFQCSSDSTNGTGVQGGQIPELIFYAEGHHHHHH", "soluble on expression in E. coli": "not soluble"},
      {"sequence": "LKPYCRPSTSVVLQGLPMVARKTLFMLPDGGGSAFSYASLPRLKSDTAVVGLNCPYARDPENMNCTHGAMIESFCNEIRRRQPRGPYHLGGWSSGGAFAYVVAEALVNQGEEVHSLIIIDAPIPQAMEQLPRAFYEHCNSIGLFATQPGASPDGSTEPPSYLIPHFTAVVDVMLDYKLAPLHARRMPKVGIVWAADTVMDERDAPKMKGMHFMIQKRTEFGPDGWDTIMPGASFDIVRADGANHFTLMQKEHVSIISDLIDRVMA", "soluble on expression in E. coli": "soluble"},
      {"sequence": "MKFVSIISNSRMLFLFLLITAKSDRESCLYIFDENIRGVNITPTFVSTRAKGLFDLFIKKLRSRVALSFFLLKRKIKLEETIVYGADHLSHSLLFLKKCSFFLIEDGTENYHQKSYKRSWKNKLFSIPKFGMYKNVKRIYLTKRENVPDCIKSKVEYINIKDLWFKKTEEEKLEILYLLGIDMKKIQLLIGEPFILFTQPLSEDYILTENEKIELYKSIIDKYDASKLVIKPHPREKTDYSRIFPNVKVFDETYPSEVLDILEVKFSRVITLFSTAAFSYPKEKVDFYGTKIHPKLLAKFGNIEYE", "soluble on expression in E. coli": "not soluble"},
      {"sequence": "MPLPIAAPPILASTLTLLLATTPTAAALTPEQHAAALVAQMTRQEKIAQTMNAAPAIPRLGIPAYDWWSEGLHGIARNGYATVFPQAIGLAASWNTDLLQHVGTVTSTEARAKFNLTGGPGKDHPRYAGLTLWSPNINIFRDPRWGRGMETYGEDPYLTSQLAVSFIRGLQGDTPDHPRTIATPKHFAVHSGPEQGRHSFDVDVSAYDLEATYTPAFRAAIVDGHAGSVMCAYNALHGTPACASDWLLNTRLRNDWGFNGFVVSDCDAIEDMTRFHFFRQDNASASAAALKSGNDLNCGNTYRDLNQAIARGDIDESTLDQALIRLFTARQRLGTLQPREHDPYAAIGIK", "soluble on expression in E. coli": "not soluble"},
      {"sequence": "MSLATILIADDDPVTRTTLSIMLEDEDHEVYEAADSAETLDLLETTEPHVVFMDMVLPDCEAGEGITRVRRAAPAVTIIAMTGQPDTARFSAMARDAGCKECLIKPFEKNRVLALTRKVLAARGHKEGHHHHHH", "soluble on expression in E. coli": "not soluble"},
      {"sequence": "STATIDRRLSTLNPNAPVFDPVEFREVEDFSPKWWDLVTTSKWFRDFWLSANSENEFLGGDDFSVMEEEFEEMIASSDGGSMADTVTEADVASYLKMLLNIAESTKEKIYRSKVSSCSPKYNQKKYMNPNFNCRRNHHIYQPR", "soluble on expression in E. coli": "soluble"}
    ]}
  ]
}
